The target of data set [1] is T1, HaLF (Heterobasidion irregulare, UniProt W4KBR7).
T1 sequence (W4KBR7 21-648): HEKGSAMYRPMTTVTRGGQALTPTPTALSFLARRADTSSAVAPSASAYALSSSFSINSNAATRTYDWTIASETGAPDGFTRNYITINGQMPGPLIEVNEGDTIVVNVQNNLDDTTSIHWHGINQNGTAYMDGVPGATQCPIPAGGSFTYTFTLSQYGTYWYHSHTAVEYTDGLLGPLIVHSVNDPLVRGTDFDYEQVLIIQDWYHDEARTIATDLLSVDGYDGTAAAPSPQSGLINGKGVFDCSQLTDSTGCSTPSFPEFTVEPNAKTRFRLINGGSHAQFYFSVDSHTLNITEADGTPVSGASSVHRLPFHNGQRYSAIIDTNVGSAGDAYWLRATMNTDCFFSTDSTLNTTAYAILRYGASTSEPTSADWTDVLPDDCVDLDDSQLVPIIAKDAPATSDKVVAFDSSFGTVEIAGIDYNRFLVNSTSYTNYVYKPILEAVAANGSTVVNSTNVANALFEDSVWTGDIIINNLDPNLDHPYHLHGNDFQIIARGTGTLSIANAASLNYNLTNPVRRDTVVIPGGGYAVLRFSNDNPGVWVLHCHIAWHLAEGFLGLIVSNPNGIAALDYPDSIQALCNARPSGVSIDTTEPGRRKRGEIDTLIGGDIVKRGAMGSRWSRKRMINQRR
The data set can be described thus: spectrophotometric oxidation at […] nm, hyperbola or Hill fit. It counts as biochemical. Particulars: read-out: HaLF / KM; 100 mM citrate-phosphate pH 4; air O2.

The target of data set [2] is T2, HaLF (Heterobasidion irregulare, UniProt W4KBR7, A247E/F364D).
T2 sequence (W4KBR7 21-648 A247E/F364D): T1 sequence (W4KBR7 21-648)
The data set is described as above. It counts as biochemical. Particulars: read-out: HaLFA227E, F344D / KM; 100 mM citrate-phosphate pH 4; air O2.

A further data set has as its system COc1cccc(OC)c1O. The data set can be described thus: purified protein. It counts as biochemical, Heterobasidion irregulare. Particulars: 100 mM citrate-phosphate pH 5, air O2.
In the next data set the test system is COc1ccccc1O. As to the kind of experiment: purified protein. Format: biochemical, Heterobasidion irregulare. Particulars: 100 mM citrate-phosphate pH 5, air O2.
In data set [3] the test system is CCn1c(=NN=c2sc3cc(S(=O)(=O)O)ccc3n2CC)sc2cc(S(=O)(=O)O)ccc21. As to the kind of experiment: purified protein. Particulars: 100 mM citrate-phosphate pH 4, air O2.
Substrate in data set [4]: COc1cccc(OC)c1O
As to the kind of experiment: purified protein. Particulars: 100 mM citrate-phosphate pH 5, air O2. It counts as biochemical, Heterobasidion irregulare. This is another data set of the same source.

Substrate in data set [5]: COc1ccccc1O
The data set can be described thus: purified protein. It counts as biochemical, Heterobasidion irregulare. Particulars: 100 mM citrate-phosphate pH 5, air O2. The source holds these as a separate data set.

Substrate in data set [6]: CCn1c(=NN=c2sc3cc(S(=O)(=O)O)ccc3n2CC)sc2cc(S(=O)(=O)O)ccc21
The data set can be described thus: purified protein. To be noted: 100 mM citrate-phosphate pH 4, air O2. This is another data set of the same source.

Substrate in data set [7]: Nc1ccccc1N
The data set can be described thus: purified protein. Particulars: 100 mM citrate-phosphate pH 4, air O2.

Take `CN(C)c1ccc(N)cc1` [DMPD, N,N-Dimethyl-1,4-phenylenediamine]: the results for the Km on HaLF [1] and on HaLF [2] were 8 ± 0.4 mM and 9 ± 0.8 mM, respectively.

As usually defined, the kcat is the maximal rate divided by the concentration of active sites. “HaLF (Heterobasidion irregulare TC 32-1; A247E/F364D)”: the results for the Km (with COc1cccc(OC)c1O; in the data set on COc1ccccc1O; in [3]) were 3.8 ± 0.3 mM, 31 ± 4 mM and 11 ± 1.5 mM, respectively. The catalytic constant (kcat) turned out to be 0.87 ± 0.03 s⁻¹ with COc1cccc(OC)c1O, 0.3 ± 0.02 s⁻¹ in the data set on COc1ccccc1O and 16 ± 1 s⁻¹ in [3].

B1: HaLF (Heterobasidion irregulare TC 32-1) (protein)
chain: T1 sequence (W4KBR7 21-648)
For the molecule B1, the Km stood at 0.5 ± 0.05 mM in “purified protein [4]”, 20 ± 5 mM in “purified protein [5]”, 4 ± 0.6 mM in “purified protein [6]” and 1.6 ± 0.3 mM in “purified protein [7]”. The kcat stood at 122 ± 4 s⁻¹ in “purified protein [4]”, 3.7 ± 0.4 s⁻¹ in the data set “purified protein [5]”, 428 ± 14 s⁻¹ in the data set “purified protein [6]” and 26 ± 2 s⁻¹ in the data set “purified protein [7]”.

The record behind these values is paper PMC9880977 (Computational and Structural Biotechnology Journal, 2023).
